Experiments:
U2AF65 E425A = U2AF65 E425A (UniProt P26369 1-475, E425A); test: EMSA
U2AF65 WT = U2AF65 WT (UniProt P26369 1-475); test: EMSA
Sequence of U2AF65 WT (P26369 whole entry, one chain of several): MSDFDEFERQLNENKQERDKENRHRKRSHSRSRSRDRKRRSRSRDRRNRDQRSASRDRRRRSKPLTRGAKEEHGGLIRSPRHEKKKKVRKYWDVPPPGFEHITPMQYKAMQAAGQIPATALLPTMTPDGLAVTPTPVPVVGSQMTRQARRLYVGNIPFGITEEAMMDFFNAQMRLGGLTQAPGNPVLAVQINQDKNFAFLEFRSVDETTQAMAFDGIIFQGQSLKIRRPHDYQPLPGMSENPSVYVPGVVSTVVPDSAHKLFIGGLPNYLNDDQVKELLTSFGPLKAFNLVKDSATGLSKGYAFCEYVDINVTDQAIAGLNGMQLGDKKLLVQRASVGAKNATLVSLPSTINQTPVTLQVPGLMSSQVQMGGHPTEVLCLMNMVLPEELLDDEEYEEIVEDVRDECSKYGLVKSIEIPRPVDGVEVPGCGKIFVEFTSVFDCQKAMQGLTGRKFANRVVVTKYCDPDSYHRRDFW

Sequence of U2AF65 E425A (P26369 whole entry E425A, one chain of several): as the sequence (P26369 whole entry, one chain of several) above, with E425A counted along it

B1: U2 LPL 3' splice site (ssRNA)
RNA: CCUGCUUUUUUCCCUUUUAAGGCCUCGAUCCA
B1: binds (U2AF65 E425A); binds (U2AF65 WT).

B2: U12 Scn8a 3' splice site (ssRNA)
RNA: CUUAACUCCUCUCUACAGU
B2: no binding (U2AF65 E425A); no binding (U2AF65 WT).
